Data on 63 sequences can be found in the supplement of paper PMC9112550, “Optimization of the antimicrobial peptide Bac7 by deep mutational scanning” (BMC Biology, 2022).

For this series, the system named is Escherichia coli TOP10. The series can be described thus: shrunken log2 fold change of peptide-encoding DNA abundance (4.5 h post-induction vs induction); higher = less antimicrobial activity (less host growth inhibition). The conditions noted are these: time post-induction: 4.5 h; library: site-saturation at positions 5, 18, 19, 20.
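Note: peptides expressed intracellularly from a pBAD plasmid library in pooled LB shake-flask culture, induced with 0.3% L-arabinose, DNA abundance read by NGS, three biological replicates, DESeq2 with apeglm shrinkage.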

Consider RRIRRRPPRLPRPRPRPFNNPRP, for which the “shrunken log2 fold change” value turned out to be 0.221. Turning to RRIRWRPPRLPRPRPRPWQCPRP, the “shrunken log2 fold change” value was -0.233. For the sequence RRIRCRPPRLPRPRPRPDPVPRP, the “shrunken log2 fold change” value amounted to 0.205.

Turning to RRIRLRPPRLPRPRPRPICTPRP, the “shrunken log2 fold change” value is -0.243. As for RRIRTRPPRLPRPRPRPFGTPRP, the “shrunken log2 fold change” value was -0.107.

Take RRIRWRPPRLPRPRPRPKFCPRP: the “shrunken log2 fold change” value was -0.116. As for RRIRVRPPRLPRPRPRPIRQPRP, the “shrunken log2 fold change” value was -0.294. As to RRIRGRPPRLPRPRPRPQVIPRP, the “shrunken log2 fold change” value was -0.0421. In the case of RRIRIRPPRLPRPRPRPACGPRP, the “shrunken log2 fold change” value stood at 0.271.

Regarding RRIRVRPPRLPRPRPRPKNPPRP, the “shrunken log2 fold change” value was -0.17. For RRIRGRPPRLPRPRPRPPYLPRP, the “shrunken log2 fold change” value was -0.0342. Then RRIRTRPPRLPRPRPRPYHTPRP, with -0.723. Then RRIRSRPPRLPRPRPRPREFPRP, with 0.322; and RRIRERPPRLPRPRPRPQQEPRP, with -0.0361; and RRIRARPPRLPRPRPRPWWGPRP, with 3.62. Then RRIRLRPPRLPRPRPRPNGPPRP, with -0.146; and RRIRERPPRLPRPRPRPDAQPRP, with 0.154; and RRIRNRPPRLPRPRPRPEERPRP, with -0.116. For the sequence RRIRDRPPRLPRPRPRPYHLPRP, the “shrunken log2 fold change” value was -0.0628. Then RRIRRRPPRLPRPRPRPRPWPRP, with 0.737; and RRIRARPPRLPRPRPRPVMKPRP, with -0.205. The figure for RRIRCRPPRLPRPRPRPIQIPRP is -0.0558; for RRIRPRPPRLPRPRPRPAAEPRP it is 0.595. As for RRIRVRPPRLPRPRPRPRAYPRP, the “shrunken log2 fold change” value is -0.224. The figure for RRIRHRPPRLPRPRPRPDRHPRP is -0.159; for RRIRCRPPRLPRPRPRPASIPRP it is -0.612.

As to RRIRSRPPRLPRPRPRPAFTPRP, the “shrunken log2 fold change” value was -0.0573. With RRIRPRPPRLPRPRPRPFIGPRP, the “shrunken log2 fold change” value was 0.108. On to RRIRPRPPRLPRPRPRPCIRPRP, for which the “shrunken log2 fold change” value was -0.14. Consider RRIRVRPPRLPRPRPRPQEVPRP, for which the “shrunken log2 fold change” value was -0.186. On to RRIRHRPPRLPRPRPRPEMWPRP, for which the “shrunken log2 fold change” value is 0.263. Then RRIRWRPPRLPRPRPRPYPYPRP, with 0.0754. For RRIRRRPPRLPRPRPRPWHKPRP, the “shrunken log2 fold change” value was -0.384. In the case of RRIRERPPRLPRPRPRPKDCPRP, the “shrunken log2 fold change” value was 0.033. RRIRERPPRLPRPRPRPTNVPRP: the “shrunken log2 fold change” value is -0.387. As to RRIRPRPPRLPRPRPRPFGSPRP, the “shrunken log2 fold change” value was 0.0959. Take RRIRDRPPRLPRPRPRPNQMPRP: the “shrunken log2 fold change” value is -0.0987.

Consider RRIRMRPPRLPRPRPRPKTIPRP, for which the “shrunken log2 fold change” value was 0.0873.

With RRIRPRPPRLPRPRPRPVTDPRP, the “shrunken log2 fold change” value was -0.393. The figure for RRIRKRPPRLPRPRPRPWLPPRP is 0.0665; for RRIRNRPPRLPRPRPRPKDFPRP it is -0.000911. Take RRIRRRPPRLPRPRPRPRNEPRP: the “shrunken log2 fold change” value amounted to 0.18. Turning to RRIRHRPPRLPRPRPRPDYCPRP, the “shrunken log2 fold change” value is -0.01.

For the sequence RRIRPRPPRLPRPRPRPSAVPRP, the “shrunken log2 fold change” value turned out to be 0.0719.

RRIRNRPPRLPRPRPRPVHKPRP: the “shrunken log2 fold change” value was -0.182. The figure for RRIRYRPPRLPRPRPRPMFCPRP is -0.297. RRIRDRPPRLPRPRPRPLKVPRP: the “shrunken log2 fold change” value is -0.0261.

Consider RRIRSRPPRLPRPRPRPESVPRP, for which the “shrunken log2 fold change” value was found to be 0.17. Take RRIRYRPPRLPRPRPRPGNYPRP: the “shrunken log2 fold change” value was -0.0361. As to RRIRLRPPRLPRPRPRPCIVPRP, the “shrunken log2 fold change” value was -0.641.

As to RRIRSRPPRLPRPRPRPRSQPRP, the “shrunken log2 fold change” value turned out to be 0.169. The figure for RRIRPRPPRLPRPRPRPDLNPRP is 0.168; for RRIRIRPPRLPRPRPRPPCPPRP it is -0.141. The figure for RRIRKRPPRLPRPRPRPVGAPRP is 0.853; for RRIRFRPPRLPRPRPRPFTEPRP it is -0.869; for RRIRCRPPRLPRPRPRPAEKPRP it is -0.0214. Then RRIRQRPPRLPRPRPRPGLCPRP, with -0.0449; and RRIRLRPPRLPRPRPRPNIKPRP, with -0.321.

As to RRIRDRPPRLPRPRPRPVCGPRP, the “shrunken log2 fold change” value amounted to 0.979. RRIRGRPPRLPRPRPRPAFDPRP: the “shrunken log2 fold change” value was 0.763. Then RRIRDRPPRLPRPRPRPRMCPRP, with 0.0171; and RRIRVRPPRLPRPRPRPAHKPRP, with -0.0968. As for RRIRIRPPRLPRPRPRPAWCPRP, the “shrunken log2 fold change” value was -0.0802.
